These results are taken from patent US20220227830A1, “QD DOSING OF GIP RECEPTOR AGONIST PEPTIDE COMPOUNDS AND USES THEREOF” (Takeda Pharmaceutical Company Limited, priority 2020, published 2022).

Starred links: 1 amine or outer side, 2 acyl side, 3 side chain; linkers in the order of their positions; H or OH if unused. Non-standard residues stand in square brackets, D forms with d. Groups on a side chain read outwards from the residue. No end group written: not given here. *: point of attachment. 2OEGgEgE‑C15DA = 2OEGgEgE-C15 diacid linker-lipid on the Lys side chain, O=C(O)CCCCCCCCCCCCCC(=O)N[C@@H](CCC(=O)N[C@@H](CCC(=O)NCCOCCOCC(=O)NCCOCCOCC(=O)*)C(=O)O)C(=O)O; 2OEGgE‑C16DA = O=C(O)CCCCCCCCCCCCCCC(=O)N[C@@H](CCC(=O)NCCOCCOCC(=O)NCCOCCOCC(=O)*)C(=O)O; G2E3 = linker of 2 Gly and 3 Glu (read GGEEE); C15 diacid = O=C(O)CCCCCCCCCCCCCC(=O)*; γGlu = O=C(O)[C@H](CCC(=O)[*:2])N[*:1]; NMeY = CN[C@@H](Cc1ccc(O)cc1)C(=O)O; AEEA = NCCOCCOCC(=O)O; Aib = CC(C)(N)C(=O)O

The labels stand for the following.
T1: full-length human GIPR with an N-terminal FLAG tag (human, UniProt P48546 22-466)
T1 sequence (looked up): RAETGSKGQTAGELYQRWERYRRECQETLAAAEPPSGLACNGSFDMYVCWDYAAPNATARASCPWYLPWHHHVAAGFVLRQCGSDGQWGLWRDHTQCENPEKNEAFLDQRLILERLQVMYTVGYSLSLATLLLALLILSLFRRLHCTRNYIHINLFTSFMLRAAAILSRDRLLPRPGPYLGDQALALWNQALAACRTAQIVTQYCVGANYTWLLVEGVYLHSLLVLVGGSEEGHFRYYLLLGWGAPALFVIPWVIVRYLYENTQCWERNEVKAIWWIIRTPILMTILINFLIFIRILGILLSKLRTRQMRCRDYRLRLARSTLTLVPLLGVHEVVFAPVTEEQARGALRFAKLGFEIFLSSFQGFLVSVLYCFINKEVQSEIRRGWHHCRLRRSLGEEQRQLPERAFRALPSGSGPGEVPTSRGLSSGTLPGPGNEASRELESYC

B1: Compound 49 (peptide)
peptide: Y[Aib]EGTFISDYSIAK([G2E3-C15 diacid])DR[Aib]AQ[Aib]NFVNWLLAQRPSSGAPPPS-OH
modifications: not fully specified (residue 1); also: Me-Tyr methyl position not given here
B2: Compound 14 (peptide)
peptide: [NMeY][Aib]EGTFISDYSIALDR[Aib]AQ[Aib]K([AEEA-AEEA-γGlu-γGlu-C15 diacid])FVNWLLAQR-NH2
modifications: not fully specified (N-terminus); also: C-term NH2 in mods, C_TER column prints OH
B3: Compound 20 (peptide)
peptide: Me-Y[Aib]EGTFISDYSI[Aib]LDRKAQ[Aib]NFVNWLLAQRPSSGAPPPS-NH2
modifications: not fully specified (residues 1, 17)
B4: Compound 54 (peptide)
peptide: [NMeY][Aib]EGTFISDYSIALDRKAQ[Aib]NFVNWLLAQSPSSGAPPPS-OH
modifications: not fully specified (residue 17)
B5: Compound 120 (peptide)
peptide: [NMeY][Aib]EGTFISDYSI[Aib]KDR[Aib]AQ[Aib]NFVNWLLAQRPSSGAPPPS-NH2
modifications: not fully specified (residue 14)
B6: Compound 25 (peptide)
peptide: [NMeY][Aib]EGTFISDYSIALDR[Aib]AQ[Aib]K([AEEA-AEEA-γGlu-γGlu-C15 diacid])FVNWLLAQKG-OH
modifications: N-terminus assumed
SMILES: CC[C@H](C)[C@H](NC(=O)[C@H](CO)NC(=O)[C@H](Cc1ccc(O)cc1)NC(=O)[C@H](CC(=O)O)NC(=O)[C@H](CO)NC(=O)[C@@H](NC(=O)[C@H](Cc1ccccc1)NC(=O)[C@@H](NC(=O)CNC(=O)[C@H](CCC(=O)O)NC(=O)C(C)(C)NC(=O)[C@H](Cc1ccc(O)cc1)NC)[C@@H](C)O)[C@@H](C)CC)C(=O)N[C@@H](C)C(=O)N[C@@H](CC(C)C)C(=O)N[C@@H](CC(=O)O)C(=O)N[C@@H](CCCNC(=N)N)C(=O)NC(C)(C)C(=O)N[C@@H](C)C(=O)N[C@@H](CCC(N)=O)C(=O)NC(C)(C)C(=O)N[C@@H](CCCCNC(=O)COCCOCCNC(=O)COCCOCCNC(=O)CC[C@H](NC(=O)CC[C@H](NC(=O)CCCCCCCCCCCCCC(=O)O)C(=O)O)C(=O)O)C(=O)N[C@@H](Cc1ccccc1)C(=O)N[C@H](C(=O)N[C@@H](CC(N)=O)C(=O)N[C@@H](Cc1c[nH]c2ccccc12)C(=O)N[C@@H](CC(C)C)C(=O)N[C@@H](CC(C)C)C(=O)N[C@@H](C)C(=O)N[C@@H](CCC(N)=O)C(=O)N[C@@H](CCCCN)C(=O)NCC(=O)O)C(C)C
B7: Compound 144 (peptide)
peptide: Me-Y[Aib]EGTFISDYSIALDR[Aib]KQ[Aib]NFVNWLLAQSPSSGAPPPS-NH2
modifications: not fully specified (residues 1, 18)
B8: Compound 35 (peptide)
peptide: [NMeY][Aib]EGTFISDYSIALDK[Aib]AQ[Aib]NFVNWLLAK([AEEA-AEEA-γGlu-C15 diacid])S-OH
modifications: not fully specified
B9: Compound 148 (peptide)
peptide: Me-Y[Aib]EGTFISDYSIALDR[Aib]AQ[Aib]KFVNWLLAQKG-OH
modifications: not fully specified (residues 1, 21)
B10: Compound 79 (peptide)
peptide: [NMeY][Aib]EGTFISDYSIAK([G5-γGlu-C15 diacid])DR[Aib]AQ[Aib]DFVNWLLAQSPSSGAPPPS-NH2
B11: Compound 59 (peptide)
peptide: Y[Aib]EGTFISDYSI[Aib]KDR[Aib]AQ[Aib]NFVNWLLAQR-NH2
modifications: not fully specified (residues 1, 14)
B12: Compound 21 (peptide)
peptide: Me-Y[Aib]EGTFISDYSI[Aib]LDR[Aib]AQ[Aib]NFVNWLLAQK([2OEG-γGlu-γGlu-C15 diacid])PSSGAPPPS-NH2
B13: Compound 86 (peptide)
peptide: [NMeY][Aib]EGTFISDYSIALDR[Aib]AQ[Aib]K([AEEA-γGlu-γGlu-C15 diacid])FVNWLLAQR-NH2
modifications: N-terminus assumed
SMILES: CC[C@H](C)[C@H](NC(=O)[C@H](CO)NC(=O)[C@H](Cc1ccc(O)cc1)NC(=O)[C@H](CC(=O)O)NC(=O)[C@H](CO)NC(=O)[C@@H](NC(=O)[C@H](Cc1ccccc1)NC(=O)[C@@H](NC(=O)CNC(=O)[C@H](CCC(=O)O)NC(=O)C(C)(C)NC(=O)[C@H](Cc1ccc(O)cc1)NC)[C@@H](C)O)[C@@H](C)CC)C(=O)N[C@@H](C)C(=O)N[C@@H](CC(C)C)C(=O)N[C@@H](CC(=O)O)C(=O)N[C@@H](CCCNC(=N)N)C(=O)NC(C)(C)C(=O)N[C@@H](C)C(=O)N[C@@H](CCC(N)=O)C(=O)NC(C)(C)C(=O)N[C@@H](CCCCNC(=O)COCCOCCNC(=O)CC[C@H](NC(=O)CC[C@H](NC(=O)CCCCCCCCCCCCCC(=O)O)C(=O)O)C(=O)O)C(=O)N[C@@H](Cc1ccccc1)C(=O)N[C@H](C(=O)N[C@@H](CC(N)=O)C(=O)N[C@@H](Cc1c[nH]c2ccccc12)C(=O)N[C@@H](CC(C)C)C(=O)N[C@@H](CC(C)C)C(=O)N[C@@H](C)C(=O)N[C@@H](CCC(N)=O)C(=O)N[C@@H](CCCNC(=N)N)C(N)=O)C(C)C
B14: Compound 113 (peptide)
peptide: [NMeY][Aib]EGTFISDYSI[Aib]LDR[Aib]AQ[Aib]K([Gly-Gly-Glu-Glu-Glu-C15 diacid])FVNWLLAQK-NH2
B15: Compound 142 (peptide)
peptide: YXEGTFISDYSIXXDRXAQXDFVNWLLAQRG
modifications: Me-Tyr1; Aib 2,13,17,20; Km14 = Lys(GGGGG-C15 diacid) (Table 3 prints the linker 'GS'); C-term OH
B16: Compound 111 (peptide)
peptide: [NMeY][Aib]EGTFISDYSI[Aib]LDR[Aib]K(2OEGgEgE‑C15DA)Q[Aib]NFVNWLLAQSPSSGAPPPS-NH2
modifications: N-terminus assumed
SMILES: CC[C@H](C)[C@H](NC(=O)[C@H](Cc1ccccc1)NC(=O)[C@@H](NC(=O)CNC(=O)[C@H](CCC(=O)O)NC(=O)C(C)(C)NC(=O)[C@H](Cc1ccc(O)cc1)NC)[C@@H](C)O)C(=O)N[C@@H](CO)C(=O)N[C@@H](CC(=O)O)C(=O)N[C@@H](Cc1ccc(O)cc1)C(=O)N[C@@H](CO)C(=O)N[C@H](C(=O)NC(C)(C)C(=O)N[C@@H](CC(C)C)C(=O)N[C@@H](CC(=O)O)C(=O)N[C@@H](CCCNC(=N)N)C(=O)NC(C)(C)C(=O)N[C@@H](CCCCNC(=O)COCCOCCNC(=O)COCCOCCNC(=O)CC[C@H](NC(=O)CC[C@H](NC(=O)CCCCCCCCCCCCCC(=O)O)C(=O)O)C(=O)O)C(=O)N[C@@H](CCC(N)=O)C(=O)NC(C)(C)C(=O)N[C@@H](CC(N)=O)C(=O)N[C@@H](Cc1ccccc1)C(=O)N[C@H](C(=O)N[C@@H](CC(N)=O)C(=O)N[C@@H](Cc1c[nH]c2ccccc12)C(=O)N[C@@H](CC(C)C)C(=O)N[C@@H](CC(C)C)C(=O)N[C@@H](C)C(=O)N[C@@H](CCC(N)=O)C(=O)N[C@@H](CO)C(=O)N1CCC[C@H]1C(=O)N[C@@H](CO)C(=O)N[C@@H](CO)C(=O)NCC(=O)N[C@@H](C)C(=O)N1CCC[C@H]1C(=O)N1CCC[C@H]1C(=O)N1CCC[C@H]1C(=O)N[C@@H](CO)C(N)=O)C(C)C)[C@@H](C)CC
B17: Compound 17 (peptide)
peptide: Me-Y[Aib]EGTFISDYSIALDR[Aib]K([AEEA-AEEA-γGlu-γGlu-C15 diacid])Q[Aib]NFVNWLLAQSPSSGAPPPS-NH2
B18: Compound 143 (peptide)
peptide: Me-Y[Aib]EGTFISDYSIALDR[Aib]AQ[Aib]KFVNWLLAQKG-OH
modifications: not fully specified (residues 1, 21)
B19: Compound 50 (peptide)
peptide: Y[Aib]EGTFISDYSIAKDR[Aib]AQ[Aib]NFVNWLLAQRPSSGAPPPS-OH
modifications: not fully specified (residues 1, 14); also: Me-Tyr methyl position not given here
B20: Compound 19 (peptide)
peptide: Me-Y[Aib]EGTFISDYSI[Aib]K([AEEA-AEEA-γGlu-γGlu-C15 diacid])DR[Aib]AQ[Aib]NFVNWLLAQRPSSGAPPPS-NH2
B21: Compound 1 (peptide)
peptide: [NMeY][Aib]EGTFISDYSIAK(2OEGgE‑C16DA)DR[Aib]AQQNFVNWLLAQK
B22: Compound 2 (peptide)
peptide: [NMeY][Aib]EGTFISDYSIAKDR[Aib]AQQNFVNWLLAQK
modifications: not fully specified (residue 14, N-terminus)

In one assay the target is T1, full-length human GIPR with an …. In words: cell-based or functional assay.
Turning to B1, the “Human GIPR cAMP, HEK293T EC50” value stood at 0.0002 nM.

On to B2, for which the “Human GIPR cAMP, HEK293T EC50” value turned out to be 0.0004 nM.

As for B3, the “Human GIPR cAMP, HEK293T EC50” value came out at 0.0003 nM.

On to B4, for which the “Human GIPR cAMP, HEK293T EC50” value is 0.0001 nM.

On to B5, for which the “Human GIPR cAMP, HEK293T EC50” value came to 0.0004 nM.

Take B6: the “Human GIPR cAMP, HEK293T EC50” value stood at 0.0005 nM.

With B7, the “Human GIPR cAMP, HEK293T EC50” value turned out to be 0.0001 nM.

Turning to B8, the “Human GIPR cAMP, HEK293T EC50” value was found to be 0.0003 nM.

As for B9, the “Human GIPR cAMP, HEK293T EC50” value turned out to be 0.0011 nM.

As for B10, the “Human GIPR cAMP, HEK293T EC50” value was determined as 0.0002 nM.

Turning to B11, the “Human GIPR cAMP, HEK293T EC50” value was 0.0004 nM.

Consider B12, for which the “Human GIPR cAMP, HEK293T EC50” value is 0.0003 nM.

With B13, the “Human GIPR cAMP, HEK293T EC50” value was 0.0014 nM.

With B14, the “Human GIPR cAMP, HEK293T EC50” value worked out at 0.0004 nM.

Turning to B15, the “Human GIPR cAMP, HEK293T EC50” value came to 0.0001 nM.

Take B16: the “Human GIPR cAMP, HEK293T EC50” value came out at 0.0004 nM.

In the case of B17, the “Human GIPR cAMP, HEK293T EC50” value stood at 0.0004 nM.

For B18, the “Human GIPR cAMP, HEK293T EC50” value is 0.0004 nM.

As for B19, the “Human GIPR cAMP, HEK293T EC50” value is 0.0004 nM.

In the case of B20, the “Human GIPR cAMP, HEK293T EC50” value is 0.0004 nM.

The target in the next assay is full-length human GLP-1R with an N-terminal FLAG tag (human, UniProt P43220 24-463). The experiment in a line: cell-based or functional assay.
As for B21, the “Human GLP1R cAMP HEK293T EC50” value turned out to be 871 nM.

On to B22, for which the “Human GLP1R cAMP HEK293T EC50” value was determined as 1000 nM.
